Among the targets are ACE2 p.Gly326Glu (human) (UniProt Q9BYF1); ACE2 p.Ser19Pro (human) (UniProt Q9BYF1); ACE2 p.Thr27Arg (human) (UniProt Q9BYF1); ACE2 p.Lys26Arg (human) (UniProt Q9BYF1); ACE2 p.Pro389His (human) (UniProt Q9BYF1); ACE2 p.Glu35Lys (human) (UniProt Q9BYF1); ACE2 p.Glu37Lys (human) (UniProt Q9BYF1); ACE2 p.Glu329Gly (human) (UniProt Q9BYF1); ACE2 p.Asp355Asn (human) (UniProt Q9BYF1); ACE2 p.Phe40Leu (human) (UniProt Q9BYF1).

Holding throughout (assay): SPR
On the technique in general: Surface plasmon resonance follows binding to a sensor surface in real time, without labels.

Some results are limits rather than exact numbers.

Regarding “SARS-CoV-2 Spike receptor binding domain (from UniProt P0DTC2) (domain or fragment)”, the SPR ΔΔG against ACE2 WT with ACE2 p.Gly326Glu (human) is -0.65 kcal/mol; with ACE2 p.Ser19Pro (human) it was 0.59 kcal/mol; with ACE2 p.Thr27Arg (human), -0.11 kcal/mol; with ACE2 p.Lys26Arg (human), 0.26 kcal/mol; with ACE2 p.Pro389His (human), 0.27 kcal/mol; with ACE2 p.Glu35Lys (human) it was -0.36 kcal/mol. For the same substance, the SPR ΔΔG against ACE2 WT is -1.33 kcal/mol with ACE2 p.Glu37Lys (human), -0.09 kcal/mol with ACE2 p.Glu329Gly (human), less than -3.16 kcal/mol with ACE2 p.Asp355Asn (human) and 0.11 kcal/mol with ACE2 p.Phe40Leu (human). For the same substance, the ΔΔG against ACE2 WT was -0.67 kcal/mol in the assay with ACE2 p.Gly326Glu (human); 0.31 kcal/mol with ACE2 p.Lys26Arg (human); 0.12 kcal/mol with ACE2 p.Pro389His (human); -0.29 kcal/mol in the assay with ACE2 p.Glu35Lys (human); -1.25 kcal/mol with ACE2 p.Glu37Lys (human); -0.06 kcal/mol with ACE2 p.Glu329Gly (human). In the assay with ACE2 p.Phe40Leu (human), the ΔΔG against ACE2 WT was 0.14 kcal/mol.

The record behind these values is article PMC8920257.
